Reference: patent US20220025032A1 (Novartis, published 2022)
Read-outs that look alike come from different tables or passages of the source.

Assays:
Human BTC = molecular target: T1, Human BTC (human, UniProt P35070 32-111); test: SPR Biacore T200, anti-Fab capture, antigen as analyte
T1 construct: Soluble human BTC of the Biacore, ELISA, MSD and cell assays; also called human betacellulin; soluble human BTC
T1 sequence: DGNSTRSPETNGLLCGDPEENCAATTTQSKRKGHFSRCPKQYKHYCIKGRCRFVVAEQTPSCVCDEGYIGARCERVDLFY

Human VEGF165 [1] = molecular target: T2, Human VEGF165 (human, UniProt P15692 27-191); test: as above
T2 construct: mature; biotinylated in the VEGFR2 ELISAs; also called human VEGF-A; VEGF-A
T2 sequence (P15692 other isoform, or with tags, fused parts or gaps): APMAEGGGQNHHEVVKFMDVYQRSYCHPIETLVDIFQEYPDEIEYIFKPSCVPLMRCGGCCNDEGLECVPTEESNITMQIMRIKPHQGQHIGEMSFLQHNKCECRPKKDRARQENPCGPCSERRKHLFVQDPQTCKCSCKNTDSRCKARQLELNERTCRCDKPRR

[2] = molecular target: T3, membrane-bound human BTC on 293F-hBTC cells (human, UniProt P35070 32-111); test: flow cytometry on 293F cells with membrane-bound human BTC; y axis % Pos Binding
T3 construct: the transfected construct is not described; also called membrane-anchored BTC
T3 sequence: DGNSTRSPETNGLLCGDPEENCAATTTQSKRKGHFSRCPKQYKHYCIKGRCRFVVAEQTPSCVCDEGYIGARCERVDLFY
Description: After washing the cells, the cells were dissociated using Versene at 37° C. The cells were washed with FACS buffer and plated at 100 μl in a 96 well plate using cells at 1×10⁶ cells/ml. Then 100 μl of a serial dilution of antibodies starting at 50 nM was used. The cells were incubated, washed and then treated with the secondary anti-human Fab-FITC antibody. The antibodies only bound to the cells expressing BTC. After which the cells were washed and analyzed on the Attune Flow Cytometry. All data analysis was carried out using Flow Jo software.
In FIG. 6A, Flow cytometry was used to assess the binding of NVS11 to membrane-bound BTC using an anti-human Fab antibody for detection.

Human BTC-avitag-biotin [3] = molecular target: T4, Human BTC-avitag-biotin (human, UniProt P35070 32-111, biotin on the avitag); test: flow cytometry: inhibition of biotin-BTC binding to HKB11 cells over-expressing ErbB1; y axis Fluorescent Intensity
T4 construct: also called biotin-BTC; soluble human BTC-avitag-biotin
T4 sequence: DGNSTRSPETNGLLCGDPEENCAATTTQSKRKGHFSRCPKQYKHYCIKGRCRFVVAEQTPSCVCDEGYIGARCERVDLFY
Description: (§1) In order to assess potency of the Fabs and bispecific in neutralizing binding of BTC to its receptor Erb 1 or ErbB4, the following assay was performed. HKB11 over-expressing either ErbB1 or ErbB4 cells were plated 1×10⁵ cells/well. Cells were washed once with FACS buffer by spun down at 1200 rpm for 5 minutes and supernatant removed. Next, the Fab sample dilutions and BTC were prepared in FACS buffer. Human BTC-avitag-biotin was diluted to a fixed concentration of 15 nM. The test Fab samples were prepared at a starting concentration of 40 nM and titrated for 9 points at a serial dilution of 1:2. Both biotin-BTC and the test Fab samples are incubated for 30 minutes at room temperature. The pre-incubated samples were then added to the cell plate at 100 μl per well in duplicate and incubated for 1 hour on ice. The plate was then washed once in FACS buffer and spun down at 1200 rpm for 5 minutes and supernatant removed. After suspending the cell pellet with 100 μl/well of diluted secondary antibody streptavidin-Alexa Fluor488 (1:2000) in FACS buffer, the cells were then incubated for 60 min on ice. The cells were washed once with FACS buffer and re-suspended in 120 μl of FACS buffer for flow cytometric analysis.
(§2) Measurements were performed on Attune Flow Cytometry machine. Data were analysed using the Flow Jo software. The live cell populations analysed were gated in forward and side scattering (FSC-A/SSC-A dot plot). The interval gate was established on the control histogram, which was obtained with sample incubated in streptavidin-Alexa Fluor488 only, and subsequently, determined percent of positive binding events of cells carrying membrane-bound receptor ErbB1 or ErbB4 and biotin-BTC. The median of fluorescence intensity (MFI) value was also derived for the live cell population. MFI values were then used to calculate for percent inhibition of test sample and subsequently plotted in GraphPad Prism 7.03 using nonlinear regression (curve fit) model to generate IC50 value.

Human BTC-avitag-biotin [4] = molecular target: T4, Human BTC-avitag-biotin; test: flow cytometry: inhibition of biotin-BTC binding to HKB11 cells over-expressing ErbB4; y axis Fluorescent Intensity
Description: as §1, §2

Human VEGF165 [5] = molecular target: T2, Human VEGF165; test: competition ELISA: antibody pre-incubated with 400 pM VEGF-biotin, added to coated VEGFR2, streptavidin-HRP detection; y axis OD
Description: (§3) The plates were then washed 3 times using 1λTBST. The plates were blocked in 2% BSA diluent (0.1% Tween 20/0.1% TirtonX100) overnight. After blocking, the plates were washed 3 times using TB ST and then the sample mixture was added at 20 μl/well. The sample mixture consisted a final fixed concentration of VEGF-biotin (in-house) at 400 pM and a 15 point 1:2 serial dilution of the antibody starting at 20 nM. The sample mixture was pre-incubated for 1 hour prior to adding to the plate and then incubated for another hour at room temperature on the plate. Afterwards, the plate was washed 3 times using TBST and 20 μl/well of Streptavidin-HRP diluted at 1:5000 was added for an incubation time of 1 hour. The plates were washed 3 times in TBST and then 20 μl/well of TMB substrate was added. TMB is a chromogen that yields a blue color when oxidized. TMB was incubated for 10 minutes until the signal saturated in the no antibody samples, and then 10 μl/well of 2N sulfuric acid was added which then changes the blue color to yellow and this now has a maximum absorbance at 450 nm.

Human VEGF165 [6] = molecular target: T2, Human VEGF165; test: as above; remark: listed apart in the source
Description: as §3

Binder	Kd (Human BTC)	Kd (Human VEGF165 [1])	EC50 [2]	IC50 (Human BTC-avitag-biotin [3])	IC50 (Human BTC-avitag-biotin [4])	IC50 (Human VEGF165 [5])	IC50 (Human VEGF165 [6])
NVS12 (bispecific antibody, Fab-Fab: NVS2 Fab, (GSGGG)3 linker, NVS8 Fab; also called anti-BTC/anti-VEGF bispecific Fab; bispecific Fab-Fab) heavy: not shown light: SYELTQPPSVSVSPGQTASITCSGDKLGDKYAYWYQQKPGQSPVLVIYQDSKRPSGIPERFSGSNSGNTATLTISGTQAEDEADYYCQAFDYLYSLGVFGGGTKLTVLGQPKAAPSVTLFPPSSEELQANKATLVCLISDFYPGAVTVAWKADSSPVKAGVETTTPSKQSNNKYAASSYLSLTPEQWKSHRSYSCQVTHEGSTVEKTVAPTECSGSGGGGSGGGGSGGGEIVMTQSPSTLSASVGDRVIITCQASEIIHSWLAWYQQKPGKAPKLLIYLASTLASGVPSRFSGSGSGAEFTLTISSLQPDDFATYYCQNVYLASTNGANFGQGTKLTVLKRTVAAPSVFIFPPSDEQLKSGTASVVCLLNNFYPREAKVQWKVDNALQSGNSQESVTEQDSKDSTYSLSSTLTLSKADYEKHKVYACEVTHQGLSSPVTKSFNRGEC	0.006 nM	0.017 nM	0.137 nM	1.6 nM	2.19 nM	1.2 nM	
NVS13 (bispecific antibody, Fab-Fab: NVS3 Fab, (GSGGG)3 linker, NVS8 Fab; also called anti-BTC/anti-VEGF bispecific Fab; bispecific Fab-Fab) heavy: QVQLLESGGGLVQPGGSLRLSCAASGFTFSSYAMSWVRQAPGKGLEWVSGLGHVGYTTYTDSVKGRFTISRDNSKNTLYLQMNSLRAEDTAVYYCARDYLDFGYYFDVWGQGTLVTVSSASTKGPSVFPLAPSSKSTSGGTAALGCLVKDYFPEPVTVSWNSGALTSGVHTFPAVLQSSGLYSLSSVVTVPSSSLGTQTYICNVNHKPSNTKVDKRVEPKSCGSGGGGSGGGGSGGGEVQLVESGGGLVQPGGSLRLSCTASGFSLTDYYYMTWVRQAPGKGLEWVGFIDPDDDPYYATWAKGRFTISRDNSKNTLYLQMNSLRAEDTAVYYCAGGDHNSGWGLDIWGQGTLVTVSSASTKGPSVFPLAPSSKSTSGGTAALGCLVKDYFPEPVTVSWNSGALTSGVHTFPAVLQSSGLYSLSSVVTVPSSSLGTQTYICNVNHKPSNTKVDKRVEPKSC light: SYELTQPLSVSVALGQTARITCSGDKIGKKYVHWYQQKPGQAPVLVIYDDSDRPSGIPERFSGSNSGNTATLTISRAQAGDEADYYCQAWDMQSVVFGGGTKLTVLGQPKAAPSVTLFPPSSEELQANKATLVCLISDFYPGAVTVAWKADSSPVKAGVETTTPSKQSNNKYAASSYLSLTPEQWKSHRSYSCQVTHEGSTVEKTVAPTECSGSGGGGSGGGGSGGGEIVMTQSPSTLSASVGDRVIITCQASEIIHSWLAWYQQKPGKAPKLLIYLASTLASGVPSRFSGSGSGAEFTLTISSLQPDDFATYYCQNVYLASTNGANFGQGTKLTVLKRTVAAPSVFIFPPSDEQLKSGTASVVCLLNNFYPREAKVQWKVDNALQSGNSQESVTEQDSKDSTYSLSSTLTLSKADYEKHKVYACEVTHQGLSSPVTKSFNRGEC	0.0018 nM	0.0065 nM	0.194 nM	1.82 nM	2.12 nM		
NVS14 (bispecific antibody, Fab-Fab: NVS4 Fab, (GSGGG)3 linker, NVS8 Fab; also called anti-BTC/anti-VEGF bispecific Fab; bispecific Fab-Fab) heavy: QVQLLESGGGLVQPGGSLRLSCAASGFTFSRYWISWVRQAPGKGLEWVSYIDSTGTFINYADSVKGRFTISRDNSKNTLYLQMNSLRAEDTAVYYCARGGSLFDYWGQGTLVTVSSASTKGPSVFPLAPSSKSTSGGTAALGCLVKDYFPEPVTVSWNSGALTSGVHTFPAVLQSSGLYSLSSVVTVPSSSLGTQTYICNVNHKPSNTKVDKRVEPKSCGSGGGGSGGGGSGGGEVQLVESGGGLVQPGGSLRLSCTASGFSLTDYYYMTWVRQAPGKGLEWVGFIDPDDDPYYATWAKGRFTISRDNSKNTLYLQMNSLRAEDTAVYYCAGGDHNSGWGLDIWGQGTLVTVSSASTKGPSVFPLAPSSKSTSGGTAALGCLVKDYFPEPVTVSWNSGALTSGVHTFPAVLQSSGLYSLSSVVTVPSSSLGTQTYICNVNHKPSNTKVDKRVEPKSC light: not shown	0.002 nM	0.016 nM		2.17 nM	2.32 nM		1.33 nM
